# Reference: article PMC4399817
# Columns and labels:
# [1] = biological target: HLA-B27.C101S, C-terminally Sv5 tagged misfolding mutant of HLA-B*27:05 (human); test: non-reducing SDS-PAGE and immunoblot
# [2] = biological target: HLA-B27.C164S, C-terminally Sv5 tagged misfolding mutant of HLA-B*27:05 (human); test: non-reducing SDS-PAGE and immunoblot
# [3] = biological target: HLA-B*27:05 heavy chain, carboxy terminally Sv5 tagged, stably expressed in isogenic HeLa cells (HeLa-B27.Sv5) (human); test: pulse chase, immunoprecipitation and non-reducing SDS-PAGE
substance,measurement,setting,value
"HLA-B27.C101S, C-terminally Sv5 tagged misfolding mutant of HLA-B*27:05 (natural protein)",stoichiometry N,[1],2
"HLA-B27.C164S, C-terminally Sv5 tagged misfolding mutant of HLA-B*27:05 (natural protein)",stoichiometry N,[2],2
"HLA-B*27:05 heavy chain, carboxy terminally Sv5 tagged, stably expressed in isogenic HeLa cells (HeLa-B27.Sv5) (natural protein)",stoichiometry N,[3],2
